{"source": "paper PMC6726503", "about": "(Structure (London, England : 1993), 2019)", "biological_target": "T1, TGF-β2DM:TβRII binary complex (human, UniProt P37173 23-166)", "T1 chain 1": "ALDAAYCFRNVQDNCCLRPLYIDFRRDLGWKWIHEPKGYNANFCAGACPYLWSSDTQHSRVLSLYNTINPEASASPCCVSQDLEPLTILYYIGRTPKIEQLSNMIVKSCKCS", "T1 chain 2": "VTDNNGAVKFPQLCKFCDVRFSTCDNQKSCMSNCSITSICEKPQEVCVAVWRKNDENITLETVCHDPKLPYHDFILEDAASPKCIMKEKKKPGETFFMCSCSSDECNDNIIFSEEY", "test": "SEC-MALS"}
{"binder": "full-length rat betaglycan ectodomain (domain or fragment, UniProt P26342 24-789, looked up) GPEPSTRCELSPINASHPVQALMESFTVLSGCASRGTTGLPREVHVLNLRSTDQGPGQRQREVTLHLNPIASVHTHHKPIVFLLNSPQPLVWHLKTERLAAGVPRLFLVSEGSVVQFPSGNFSLTAETEERNFPQENEHLLRWAQKEYGAVTSFTELKIARNIYIKVGEDQVFPPTCNIGKNFLSLNYLAEYLQPKAAEGCVLPSQPHEKEVHIIELITPSSNPYSAFQVDIIVDIRPAQEDPEVVKNLVLILKCKKSVNWVIKSFDVKGNLKVIAPNSIGFGKESERSMTMTKLVRDDIPSTQENLMKWALDNGYRPVTSYTMAPVANRFHLRLENNEEMRDEEVHTIPPELRILLDPDHPPALDNPLFPGEGSPNGGLPFPFPDIPRRGWKEGEDRIPRPKQPIVPSVQLLPDHREPEEVQGGVDIALSVKCDHEKMVVAVDKDSFQTNGYSGMELTLLDPSCKAKMNGTHFVLESPLNGCGTRHRRSTPDGVVYYNSIVVQAPSPGDSSGWPDGYEDLESGDNGFPGDGDEGETAPLSRAGVVVFNCSLRQLRNPSGFQGQLDGNATFNMELYNTDLFLVPSPGVFSVAENEHVYVEVSVTKADQDLGFAIQTCFLSPYSNPDRMSDYTIIENICPKDDSVKFYSSKRVHFPIPHAEVDKKRFSFLFKSVFNTSLLFLHCELTLCSRKKGSLKLPRCVTPDDACTSLDATMIWTMMQNKKTFTKPLAVVLQVDYKENVPSTKDSSPIPPPPPQIFHGLDTLTV", "values": [{"measurement": "stoichiometry N", "value": "1 BG_(O-ZP) per TGF-β2DM dimer"}]}
